In US20230405133A1, “PURIFIED MULTIVALENT PROTEIN-HYALURONIC ACID POLYMER CONJUGATES” (Valitor, Inc., priority 2022, published 2023):
Blank lines part the entries; values can stand above or below the binder they belong to.

Key:
Human VEGF 165 [1] = target: T1, Human VEGF 165 (human, UniProt P15692-4 27-191); assay: BLI, VEGF 165 on probe, conjugate as analyte, t = 0; value is the limit of detection; t = 0, fresh conjugate, not aged
T1 construct: Loaded on the BLI probe as the ligand; also called BLI ligand Human VEGF 165 (Avi tag, R&D Systems AVI-293-050); not shown: Avi tag
T1 sequence (P15692 other isoform, or with tags, fused parts or gaps limits assumed): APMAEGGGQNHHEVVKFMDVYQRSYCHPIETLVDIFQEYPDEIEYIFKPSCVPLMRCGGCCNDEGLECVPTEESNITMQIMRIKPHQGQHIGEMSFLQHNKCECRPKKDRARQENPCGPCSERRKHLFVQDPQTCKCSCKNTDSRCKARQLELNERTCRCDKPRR

Human VEGF 165 [2] = target: T1, Human VEGF 165; assay: BLI, VEGF 165 on probe, t = 0 (repeats Table 15); limit of detection
Human VEGF 165 [3] = target: T1, Human VEGF 165; assay: BLI; KD after 14 days at 37 °C against KD at t = 0
Human VEGF 165 [4] = target: T1, Human VEGF 165; assay: BLI, VEGF 165 on probe; sample aged 14 days at 37 °C
Human VEGF 165 [5] = target: T1, Human VEGF 165; assay: BLI; KD after 4 days at 37 °C against KD at t = 0
Human VEGF 165 [6] = target: T1, Human VEGF 165; assay: BLI, VEGF 165 on probe, conjugate as analyte, t = 0; value is the limit of detection
Human VEGF 165 [7] = target: T1, Human VEGF 165; assay: BLI, VEGF 165 on probe; sample aged 4 days at 37 °C
Human VEGF 165 [8] = target: T1, Human VEGF 165; assay: BLI, VEGF 165 on probe, t = 0 (repeats Table 15)
Human VEGF 165 [9] = target: T1, Human VEGF 165; assay: BLI, VEGF 165 on probe, conjugate as analyte, t = 0
Human VEGF 165 [10] = target: T1, Human VEGF 165; assay: BLI, VEGF 165 on probe, conjugate as analyte, t = 0; t = 0, fresh conjugate, not aged
Human VEGF 165 [11] = target: T1, Human VEGF 165; assay: BLI, VEGF 165 on probe; sample aged 4 days at 37 °C; limit of detection

B1: Conjugate 15 (anti-VEGF VHH SEQ ID NO: 91 with aH linker SEQ ID NO: 21 on hyaluronic acid, intermediate 5-10) (VHH)
VHH: DVQLVESGGGLVQPGGSLRLSCAASGRTFSSYSMGWFRQAPGKEREFVVAISKGGYKYDAVSLEGRFTISRDNAKNTVYLQINSLRPEDTAVYYCASSRAYGSSRLRLADTYEYWGQGTLVTVSS
modifications: C-terminal Cys of the peptide linker bound by its thiol to the maleimide of the organic linker EMCH on hyaluronic acid (830 kDa)
notes: Multivalent peptide-hyaluronic acid conjugate (MVP); peptide valency 59; Method 5 intermediate 5-10, made with EMCH instead of MP2H; also called BI VHH anti-VEGF MVP
Kd (Human VEGF 165 [1]): < 0.001 nM

B3: Conjugate 17 (anti-VEGF VHH SEQ ID NO: 91 on hyaluronic acid, intermediate 1-7) (VHH)
VHH: B1 VHH
modifications: peptide bound through the organic linker MP2H to hyaluronic acid (830 kDa); site of attachment not stated
notes: Multivalent peptide-hyaluronic acid conjugate (MVP); peptide valency 90; Method 1 intermediate; also called BI VHH anti-VEGF MVP
Kd (Human VEGF 165 [8]): 0.004 nM
Kd (Human VEGF 165 [9]): 0.004 nM
Change in KD to t = 0 (Human VEGF 165 [3]): 228 fold
Kd (Human VEGF 165 [4]): 0.911 nM
Change in KD to t = 0 (Human VEGF 165 [5]): 178 fold
Kd (Human VEGF 165 [7]): 0.713 nM

B4: Conjugate 13 (anti-VEGF VHH SEQ ID NO: 91 with Rigid linker SEQ ID NO: 31 on hyaluronic acid, intermediate 5-8) (VHH)
VHH: B1 VHH
modifications: C-terminal Cys of the peptide linker bound by its thiol to the maleimide of the organic linker MP2H on hyaluronic acid (830 kDa)
notes: Multivalent peptide-hyaluronic acid conjugate (MVP); peptide valency 72; Method 5 intermediate; also called BI VHH anti-VEGF MVP
Kd (Human VEGF 165 [9]): 0.011 nM

B5: Conjugate 14 (anti-VEGF VHH SEQ ID NO: 91 with Rigid linker SEQ ID NO: 31 on hyaluronic acid, intermediate 5-3) (VHH)
VHH: B1 VHH
modifications: C-terminal Cys of the peptide linker bound by its thiol to the maleimide of the organic linker MP2H on hyaluronic acid (830 kDa)
notes: Multivalent peptide-hyaluronic acid conjugate (MVP); peptide valency 68; Method 5 intermediate; also called BI VHH anti-VEGF MVP
Kd (Human VEGF 165 [10]): 0.203 nM

Further lines, results first:

Kd (Human VEGF 165 [2]): < 0.001 nM
Change in KD to t = 0 (Human VEGF 165 [3]): 142 fold
Kd (Human VEGF 165 [4]): 0.142 nM
Change in KD to t = 0 (Human VEGF 165 [5]): 5870 fold
Kd (Human VEGF 165 [6]): < 0.001 nM
Kd (Human VEGF 165 [7]): 5.87 nM
B2: Conjugate 22 (anti-VEGF VHH SEQ ID NO: 91 with aH linker SEQ ID NO: 21 on hyaluronic acid, intermediate 1-10) (VHH)
VHH: B1 VHH
modifications: C-terminal Cys of the peptide linker bound by its thiol to the maleimide of the organic linker MP2H on hyaluronic acid (830 kDa)
notes: Multivalent peptide-hyaluronic acid conjugate (MVP); peptide valency 18; Method 1 intermediate; also called BI VHH anti-VEGF MVP

Kd (Human VEGF 165 [11]): < 0.001 nM
Kd (Human VEGF 165 [2]): < 0.001 nM
Change in KD to t = 0 (Human VEGF 165 [3]): 3670 fold
Kd (Human VEGF 165 [4]): 3.67 nM
Change in KD to t = 0 (Human VEGF 165 [5]): 1 fold
Kd (Human VEGF 165 [6]): < 0.001 nM
B6: Conjugate 18 (anti-VEGF VHH SEQ ID NO: 91 on hyaluronic acid, intermediate 1-7) (VHH)
VHH: B1 VHH
modifications: peptide bound through the organic linker MP2H to hyaluronic acid (830 kDa); site of attachment not stated
notes: Multivalent peptide-hyaluronic acid conjugate (MVP); peptide valency 88; Method 1 intermediate; also called BI VHH anti-VEGF MVP

Kd (Human VEGF 165 [2]): < 0.001 nM
Change in KD to t = 0 (Human VEGF 165 [5]): 185 fold
Kd (Human VEGF 165 [6]): < 0.001 nM
Kd (Human VEGF 165 [7]): 0.185 nM
B7: Conjugate 19 (anti-VEGF VHH SEQ ID NO: 91 on hyaluronic acid, intermediate 2-6) (VHH)
VHH: B1 VHH
modifications: peptide bound through the organic linker MP2H to hyaluronic acid (830 kDa); site of attachment not stated
notes: Multivalent peptide-hyaluronic acid conjugate (MVP); peptide valency 108; Method 2 intermediate; also called BI VHH anti-VEGF MVP

Kd (Human VEGF 165 [2]): < 0.001 nM
Change in KD to t = 0 (Human VEGF 165 [3]): 1950 fold
Kd (Human VEGF 165 [4]): 1.95 nM
Change in KD to t = 0 (Human VEGF 165 [5]): 6960 fold
Kd (Human VEGF 165 [6]): < 0.001 nM
Kd (Human VEGF 165 [7]): 6.96 nM
B8: Conjugate 23 (anti-VEGF VHH SEQ ID NO: 91 with aH linker SEQ ID NO: 21 on hyaluronic acid, intermediate 1-11) (VHH)
VHH: B1 VHH
modifications: C-terminal Cys of the peptide linker bound by its thiol to the maleimide of the organic linker MP2H on hyaluronic acid (830 kDa)
notes: Multivalent peptide-hyaluronic acid conjugate (MVP); peptide valency 33; Method 1 intermediate; also called BI VHH anti-VEGF MVP

Kd (Human VEGF 165 [2]): < 0.001 nM
Change in KD to t = 0 (Human VEGF 165 [3]): 1140 fold
Kd (Human VEGF 165 [4]): 1.14 nM
Change in KD to t = 0 (Human VEGF 165 [5]): 3300 fold
Kd (Human VEGF 165 [6]): < 0.001 nM
Kd (Human VEGF 165 [7]): 3.3 nM
B9: Conjugate 21 (anti-VEGF VHH SEQ ID NO: 91 with aH linker SEQ ID NO: 21 on hyaluronic acid, intermediate 1-9) (VHH)
VHH: B1 VHH
modifications: C-terminal Cys of the peptide linker bound by its thiol to the maleimide of the organic linker MP2H on hyaluronic acid (830 kDa)
notes: Multivalent peptide-hyaluronic acid conjugate (MVP); peptide valency 51; Method 1 intermediate; also called BI VHH anti-VEGF MVP

Kd (Human VEGF 165 [11]): < 0.001 nM
Kd (Human VEGF 165 [2]): < 0.001 nM
Change in KD to t = 0 (Human VEGF 165 [3]): 1440 fold
Kd (Human VEGF 165 [4]): 1.44 nM
Change in KD to t = 0 (Human VEGF 165 [5]): 1 fold
Kd (Human VEGF 165 [6]): < 0.001 nM
B10: Conjugate 20 (anti-VEGF VHH SEQ ID NO: 91 on hyaluronic acid, intermediate 2-8) (VHH)
VHH: B1 VHH
modifications: peptide bound through the organic linker MP2H to hyaluronic acid (830 kDa); site of attachment not stated
notes: Multivalent peptide-hyaluronic acid conjugate (MVP); peptide valency 91; Method 2 intermediate; also called BI VHH anti-VEGF MVP
